Experimental findings from patent US20230110188A1 (ARGENX IIP, published 2023) are described below.

The target in test [1] is T1, Human MuSK (R&D Systems, cat. 10189-MK, histidine tag) (human, UniProt O15146 24-495).
T1 construct: Bought protein; also called human monomeric MuSK-6xhis; not shown: histidine tag (6xhis)
T1 sequence: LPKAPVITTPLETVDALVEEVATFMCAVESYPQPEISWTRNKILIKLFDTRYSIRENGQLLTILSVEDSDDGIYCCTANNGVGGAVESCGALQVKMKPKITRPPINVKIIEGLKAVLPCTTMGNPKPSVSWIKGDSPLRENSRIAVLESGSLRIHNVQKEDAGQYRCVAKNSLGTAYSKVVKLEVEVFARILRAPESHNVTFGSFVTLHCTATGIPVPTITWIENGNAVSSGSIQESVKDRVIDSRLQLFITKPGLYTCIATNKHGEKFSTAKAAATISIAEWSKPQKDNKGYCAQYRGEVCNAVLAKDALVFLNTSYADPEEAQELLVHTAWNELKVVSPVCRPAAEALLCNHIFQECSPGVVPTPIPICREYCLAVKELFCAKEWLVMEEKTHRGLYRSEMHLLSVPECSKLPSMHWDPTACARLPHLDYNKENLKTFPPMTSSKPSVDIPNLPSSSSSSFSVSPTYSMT
The test is described as follows: SPR (Biacore), MuSK-coated chip presaturated with 500 nM 3D9b (competitor). Here is the method: (§1) A chip was coated with ˜5000 RU of human MuSK (Lot nr DHUCO 11908A, batch nr 1089_MK). In a first experiment the saturating concentration of the pre-leads was determined. This is the concentration where the amplitude of a specific pre-lead doesn't increase anymore when additional pre-lead is injected on the immobilized MuSK.

In test [2] the target is T1, Human MuSK (R&D Systems, cat. 10189-MK, …). The test is described as follows: SPR (Biacore), MuSK-coated chip presaturated with 3F6c. For orientation: SPR reads the build-up and loss of mass on a sensor chip optically.
Test [3] deals with T2, human monomeric MuSK FLAG streptavidin (in house produced, batch 27-6-2019) (human, UniProt O15146 24-495).
T2 construct: also called full length MuSK; not shown: FLAG and streptavidin tags
T2 sequence: T1 sequence
Description: epitope binning ELISA (coated anti-MuSK Fab, MuSK, IgG, anti-Fc HRP); competitor: 4D3. As for the experimental part: (§2) For epitope binning—An ELISA plate was coated at 1 μg/ml of the anti-MuSK Fabs and incubated overnight at 4° C. Next, the plate was wash with PBS followed by blocking with 1% casein in PBS for one hour. After washing the plate, 1 μg/ml of human monomeric MuSK (in house produced, batch 27-6-2019) was incubated for one hour at RT. The plate was washed and anti-MuSK antibodies at 0.3-10 μg/ml were added to the plate and incubated for one hour at RT. After washing the plate, detection antibody (goat anti-human Fc HRP (Jackson Immunoresearch cat. 109-035-098)) was added at 5000 fold dilution in PBS 0.1% casein. The plate was incubated for one hour at RT and washed with PBS-T. TMB was added and the reaction was stopped by adding H2504. […]
(§3) For the epitope binning ELISA, a plate was coated with anti-MuSK Fab and human monomeric MuSK was added after blocking the plate. Next the different antibodies were added and allowed to bind.
(In general: An ELISA detects its analyte on a solid surface through an enzyme-linked reagent.)

Test [4] addresses T2, human monomeric MuSK FLAG streptavidin …. Description: epitope binning ELISA (coated anti-MuSK Fab, MuSK, IgG, anti-Fc HRP); competitor: 3D10a. Here is the method: as §2, §3
The target is the same in test [5]. Description: epitope binning ELISA (coated anti-MuSK Fab, MuSK, IgG, anti-Fc HRP); competitor: 3B5wt. As for the experimental part: as §2, §3
The target in test [6] is T1, Human MuSK (R&D Systems, cat. 10189-MK, …). The test is described as follows: SPR (Biacore), MuSK-coated chip presaturated with 500 nM 3F6c (competitor). Here is the method:
as §1

The target is the same in test [7]. Description: SPR (Biacore), MuSK-coated chip presaturated with 500 nM 4D3 (competitor). Here is the method:
as §1

Test [8] has the same target. Description: SPR (Biacore), MuSK-coated chip, antibody alone (run of first antibody 4D3). As for the experimental part: as §1
The target is the same in test [9]. The test is described as follows: SPR (Biacore), MuSK-coated chip presaturated with 500 nM 3D10a (competitor). Here is the method:
as §1

Test [10] has as its target T2, human monomeric MuSK FLAG streptavidin …. Description: epitope binning ELISA (coated anti-MuSK Fab, MuSK, IgG, anti-Fc HRP); competitor: 3F6c. As for the experimental part:
as §2, §3

Test [11] concerns the target T1, Human MuSK (R&D Systems, cat. 10189-MK, …). Description: SPR (Biacore), MuSK-coated chip, antibody alone (run of first antibody 3D9b). As for the experimental part: as §1
The target is the same in test [12]. The test is described as follows: SPR (Biacore), MuSK-coated chip, antibody alone (run of first antibody 3F6c). As for the experimental part: as §1
Test [13] deals with T2, human monomeric MuSK FLAG streptavidin …. The test is described as follows: epitope binning ELISA (coated anti-MuSK Fab, MuSK, IgG, anti-Fc HRP); competitor: 3D9b. As for the experimental part: as §2, §3
Test [14] concerns the target T1, Human MuSK (R&D Systems, cat. 10189-MK, …). Description: SPR (Biacore), MuSK-coated chip, antibody alone (run of first antibody 3D10a). As for the experimental part:
as §1

Bounds are passed on as bounds.

B1: 3B5 (antibody, V domains shown)
VH: QVQLVQSGAVVAKPGASVQVSCKTSGYTFTGQYLHWVRQAPGQGLEWIGWINPSSGVTKFAEKFEGRATMTRDTSITTAYIDLRSLRSDDTATYYCATLSLGVYYVGMVAWGQGTLVTVSS
VL: ELTQPPSVSVSPGQTATITCSGDGLAQQHVYWFQQRPGQAPLLIIYKDIERPSGIPERFSGSSSGTTAMLTISGVQAEDEADYYCQSGDRTATSVLFGGGTKMTVLG
notes: also called 3B5wt
As for B1, the “amplitude of prelead after presaturating MuSK (RU)” value in [1] was found to be 2150 RU; in test [6] it was 2230 RU; in [7] it was 141 RU; in [9], 2260 RU. In addition, the “extra amplitude (%)” value in [1] was determined as 539%; in [6], 397%; in test [7] it was 93%; in [9] it was 344%. The “normalized extra amplitude (%)” value worked out at 538% in [1], 395% in test [6], 88.1% in [7] and 342% in test [9]. The “fold of binding signal against amplitude on non-saturated MuSK” value in [2] is not below 3 fold. Moreover, the “OD 450 nm” value is 1.96 OD in test [3]; 1.88 OD in [4]; 0.048 OD in test [5]; 2.03 OD in test [10]; 1.99 OD in [13]. The “amplitude of prelead without presaturating MuSK (RU)” value in [8] was 151 RU; in [11] it was 399 RU; in test [12] it was 562 RU; in test [14], 658 RU.
